{"source": "patent US20230210927A1", "target": "E1B55K protein (adenovirus early region 1B-55 kDa) (adenovirus type 5) (UniProt P03243)", "sequence (P03243 whole entry)": "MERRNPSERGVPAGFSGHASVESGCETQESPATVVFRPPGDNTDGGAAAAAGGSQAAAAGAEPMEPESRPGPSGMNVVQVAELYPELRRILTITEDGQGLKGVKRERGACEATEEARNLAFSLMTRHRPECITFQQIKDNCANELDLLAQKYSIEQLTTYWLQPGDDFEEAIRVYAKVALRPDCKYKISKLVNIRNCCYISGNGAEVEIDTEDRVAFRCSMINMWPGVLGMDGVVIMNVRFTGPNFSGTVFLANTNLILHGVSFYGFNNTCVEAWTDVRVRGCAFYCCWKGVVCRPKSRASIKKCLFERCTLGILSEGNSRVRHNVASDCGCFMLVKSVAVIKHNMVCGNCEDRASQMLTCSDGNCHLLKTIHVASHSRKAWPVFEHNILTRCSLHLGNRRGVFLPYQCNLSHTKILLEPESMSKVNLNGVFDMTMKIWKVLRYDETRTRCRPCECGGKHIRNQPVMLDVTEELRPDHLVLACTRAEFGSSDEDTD", "experiment": "cell-based or functional assay"}
{"substance": "E4orf6 protein (adenovirus)", "values": [{"measurement": "luminescence intensity due to luciferase activity (pGL2-p53 promoter, Dual-Luciferase Reporter Assay) in the MSC-TERT-tetoneE1B55K cell line with doxycycline; 4-fold increase with E1B55K alone", "value": "< 1.5", "unit": "fold"}]}
